Source: patent US7056701

Molecular target: formaldehyde-fixed human platelets
Assay: inhibition of vWF/botrocetin-induced agglutination of fixed human platelets

Substance	IC50 [nM]
HSA-vWF 470-704 C471,474→G	< 10
HSA-vWF 470-713 C471,474→G	20
